This is an account of results in paper PMC10290082, “Tau protein binds to the P53 E3 ubiquitin ligase MDM2” (Scientific Reports, 2023).

The experiment concerns the target T1, recombinant human MDM2 (human, UniProt Q00987 1-491).
T1 construct: E3 ubiquitin-protein ligase MDM2, human; source: bought: Biotechne (E3-204-050)
Put plainly: pull-down; purified recombinant proteins (15 ng), alone or together, on beads coupled to the pDIQ peptide; uncoupled beads as control; western blot. The following applies: both partners purified. A general note: Immunoblotting shows a protein as a band on a membrane.

T1 sequence (Q00987 whole entry): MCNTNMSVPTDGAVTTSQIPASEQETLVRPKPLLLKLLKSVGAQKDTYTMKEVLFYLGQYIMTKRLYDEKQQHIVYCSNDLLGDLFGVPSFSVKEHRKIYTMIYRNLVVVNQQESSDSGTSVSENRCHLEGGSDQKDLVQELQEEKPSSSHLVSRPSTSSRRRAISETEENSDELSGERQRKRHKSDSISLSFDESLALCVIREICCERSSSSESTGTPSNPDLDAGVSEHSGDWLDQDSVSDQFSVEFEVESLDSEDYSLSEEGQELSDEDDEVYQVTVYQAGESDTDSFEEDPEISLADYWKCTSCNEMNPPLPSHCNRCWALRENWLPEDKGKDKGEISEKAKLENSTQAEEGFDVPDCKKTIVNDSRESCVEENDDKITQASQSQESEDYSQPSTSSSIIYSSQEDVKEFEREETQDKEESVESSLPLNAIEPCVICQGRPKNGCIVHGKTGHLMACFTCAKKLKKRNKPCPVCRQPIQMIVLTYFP

Turning to ETFEHWWSQLLSGGC [pDIQ peptide], the binding result was “binds”.
